According to patent US20180009871A1 (INTARCIA THERAPEUTICS, published 2018):
Where no end group is shown, it is not given here. [ ]: non-standard residue; d: D form. Aib = CC(C)(N)C(=O)O

B1: Compound A28 (peptide)
peptide: YSHGTFTSDYSKYLD[Aib]KRAQEFV[Aib]WLEDEGPSSGAPPPS-OH
modifications: N-terminus assumed
SMILES: CC(C)C[C@H](NC(=O)[C@H](Cc1ccc(O)cc1)NC(=O)[C@H](CCCCN)NC(=O)[C@H](CO)NC(=O)[C@H](Cc1ccc(O)cc1)NC(=O)[C@H](CC(=O)O)NC(=O)[C@H](CO)NC(=O)[C@@H](NC(=O)[C@H](Cc1ccccc1)NC(=O)[C@@H](NC(=O)CNC(=O)[C@H](Cc1c[nH]cn1)NC(=O)[C@H](CO)NC(=O)[C@@H](N)Cc1ccc(O)cc1)[C@@H](C)O)[C@@H](C)O)C(=O)N[C@@H](CC(=O)O)C(=O)NC(C)(C)C(=O)N[C@@H](CCCCN)C(=O)N[C@@H](CCCNC(=N)N)C(=O)N[C@@H](C)C(=O)N[C@@H](CCC(N)=O)C(=O)N[C@@H](CCC(=O)O)C(=O)N[C@@H](Cc1ccccc1)C(=O)N[C@H](C(=O)NC(C)(C)C(=O)N[C@@H](Cc1c[nH]c2ccccc12)C(=O)N[C@@H](CC(C)C)C(=O)N[C@@H](CCC(=O)O)C(=O)N[C@@H](CC(=O)O)C(=O)N[C@@H](CCC(=O)O)C(=O)NCC(=O)N1CCC[C@H]1C(=O)N[C@@H](CO)C(=O)N[C@@H](CO)C(=O)NCC(=O)N[C@@H](C)C(=O)N1CCC[C@H]1C(=O)N1CCC[C@H]1C(=O)N1CCC[C@H]1C(=O)N[C@@H](CO)C(=O)O)C(C)C
B2: Compound A29 (peptide)
peptide: YSHGTFTSDYSKYLD[Aib]KRAQEFV[Aib]WLEDEPKSGAPPPS-OH
modifications: N-terminus assumed
SMILES: CC(C)C[C@H](NC(=O)[C@H](Cc1ccc(O)cc1)NC(=O)[C@H](CCCCN)NC(=O)[C@H](CO)NC(=O)[C@H](Cc1ccc(O)cc1)NC(=O)[C@H](CC(=O)O)NC(=O)[C@H](CO)NC(=O)[C@@H](NC(=O)[C@H](Cc1ccccc1)NC(=O)[C@@H](NC(=O)CNC(=O)[C@H](Cc1c[nH]cn1)NC(=O)[C@H](CO)NC(=O)[C@@H](N)Cc1ccc(O)cc1)[C@@H](C)O)[C@@H](C)O)C(=O)N[C@@H](CC(=O)O)C(=O)NC(C)(C)C(=O)N[C@@H](CCCCN)C(=O)N[C@@H](CCCNC(=N)N)C(=O)N[C@@H](C)C(=O)N[C@@H](CCC(N)=O)C(=O)N[C@@H](CCC(=O)O)C(=O)N[C@@H](Cc1ccccc1)C(=O)N[C@H](C(=O)NC(C)(C)C(=O)N[C@@H](Cc1c[nH]c2ccccc12)C(=O)N[C@@H](CC(C)C)C(=O)N[C@@H](CCC(=O)O)C(=O)N[C@@H](CC(=O)O)C(=O)N[C@@H](CCC(=O)O)C(=O)N1CCC[C@H]1C(=O)N[C@@H](CCCCN)C(=O)N[C@@H](CO)C(=O)NCC(=O)N[C@@H](C)C(=O)N1CCC[C@H]1C(=O)N1CCC[C@H]1C(=O)N1CCC[C@H]1C(=O)N[C@@H](CO)C(=O)O)C(C)C
B3: Compound A30 (peptide)
peptide: YSHGTFTSDYSKYLD[Aib]KRAQEFV[Aib]WLEDEPSKGAPPPS-OH
modifications: N-terminus assumed
SMILES: CC(C)C[C@H](NC(=O)[C@H](Cc1ccc(O)cc1)NC(=O)[C@H](CCCCN)NC(=O)[C@H](CO)NC(=O)[C@H](Cc1ccc(O)cc1)NC(=O)[C@H](CC(=O)O)NC(=O)[C@H](CO)NC(=O)[C@@H](NC(=O)[C@H](Cc1ccccc1)NC(=O)[C@@H](NC(=O)CNC(=O)[C@H](Cc1c[nH]cn1)NC(=O)[C@H](CO)NC(=O)[C@@H](N)Cc1ccc(O)cc1)[C@@H](C)O)[C@@H](C)O)C(=O)N[C@@H](CC(=O)O)C(=O)NC(C)(C)C(=O)N[C@@H](CCCCN)C(=O)N[C@@H](CCCNC(=N)N)C(=O)N[C@@H](C)C(=O)N[C@@H](CCC(N)=O)C(=O)N[C@@H](CCC(=O)O)C(=O)N[C@@H](Cc1ccccc1)C(=O)N[C@H](C(=O)NC(C)(C)C(=O)N[C@@H](Cc1c[nH]c2ccccc12)C(=O)N[C@@H](CC(C)C)C(=O)N[C@@H](CCC(=O)O)C(=O)N[C@@H](CC(=O)O)C(=O)N[C@@H](CCC(=O)O)C(=O)N1CCC[C@H]1C(=O)N[C@@H](CO)C(=O)N[C@@H](CCCCN)C(=O)NCC(=O)N[C@@H](C)C(=O)N1CCC[C@H]1C(=O)N1CCC[C@H]1C(=O)N1CCC[C@H]1C(=O)N[C@@H](CO)C(=O)O)C(C)C

Key:
[1] = biological target: human glucagon receptor (GCGR) (human, UniProt P47871 26-477); assay: cell-based or functional assay
[2] = biological target: human GLP-1 receptor (GLP-1R) (human, UniProt P43220 24-463); assay: cell-based or functional assay
Sequence of human GLP-1 receptor (GLP-1R) (P43220 24-463): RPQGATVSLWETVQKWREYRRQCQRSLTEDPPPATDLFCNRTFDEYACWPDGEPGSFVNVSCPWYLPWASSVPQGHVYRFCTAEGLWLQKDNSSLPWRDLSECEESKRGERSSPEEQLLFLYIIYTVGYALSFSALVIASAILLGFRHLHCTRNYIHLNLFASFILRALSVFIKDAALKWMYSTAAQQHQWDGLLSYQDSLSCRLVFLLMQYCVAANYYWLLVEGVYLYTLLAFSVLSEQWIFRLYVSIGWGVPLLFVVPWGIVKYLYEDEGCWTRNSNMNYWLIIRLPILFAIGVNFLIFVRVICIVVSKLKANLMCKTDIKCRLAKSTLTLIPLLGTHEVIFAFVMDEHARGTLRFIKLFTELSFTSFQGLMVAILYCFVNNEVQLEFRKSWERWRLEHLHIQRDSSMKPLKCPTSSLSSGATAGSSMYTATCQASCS

Binder	hGCGR pEC50 (cAMP) [1]	hGLP1 pEC50 (cAMP) [2]
B1	12.2 pEC50	< 9 pEC50
B2	11.1 pEC50	< 9 pEC50
B3	10.9 pEC50	< 9 pEC50
